Source: PMC9482650, “Quantitative fragmentomics allow affinity mapping of interactomes” (Nature Communications, 2022)

Assays:
Assay in all cases: holdup assay
Design in all cases: key: below the threshold = too weak to quantify, mostly under pKd 3.1 to 4
APBA1_2, Q02410 = target: T1, APBA1_2, Q02410
T1 sequence (Q02410 742-832, limits assumed, looked up): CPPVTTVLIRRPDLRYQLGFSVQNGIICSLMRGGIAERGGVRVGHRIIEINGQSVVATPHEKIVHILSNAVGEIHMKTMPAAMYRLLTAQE

APBA2_1, Q99767 = target: T2, APBA2_1, Q99767
T2 sequence (Q99767 563-664, limits assumed, looked up): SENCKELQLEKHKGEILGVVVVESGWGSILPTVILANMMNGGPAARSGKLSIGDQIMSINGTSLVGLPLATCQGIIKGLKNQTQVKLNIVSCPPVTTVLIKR

ARHGEF11, O15085 = target: T3, ARHGEF11, O15085
T3 sequence (O15085 42-136, limits assumed, looked up): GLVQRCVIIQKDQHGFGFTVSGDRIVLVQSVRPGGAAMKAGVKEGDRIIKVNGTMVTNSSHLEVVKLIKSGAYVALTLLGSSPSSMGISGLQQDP

ARHGEF12, Q9NZN5-2 = target: ARHGEF12, Q9NZN5-2
ARHGEF12, Q9NZN5-2, sequence (Q9NZN5 other isoform, or with tags, fused parts or gaps): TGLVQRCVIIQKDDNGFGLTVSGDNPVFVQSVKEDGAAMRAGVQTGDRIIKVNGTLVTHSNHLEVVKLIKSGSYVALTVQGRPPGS

DLG5_1, Q8TDM6 = target: DLG5_1, Q8TDM6
DLG5_1, Q8TDM6, sequence (Q8TDM6 617-713): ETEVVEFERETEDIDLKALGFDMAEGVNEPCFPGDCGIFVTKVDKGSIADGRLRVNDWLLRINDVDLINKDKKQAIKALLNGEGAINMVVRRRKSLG

DVL3, Q92997 = target: T4, DVL3, Q92997
T4 sequence (Q92997 244-331, limits assumed, looked up): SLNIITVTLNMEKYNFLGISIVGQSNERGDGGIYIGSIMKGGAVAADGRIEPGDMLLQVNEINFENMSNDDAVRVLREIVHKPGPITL

GRIP1_7, Q9Y3R0 = target: T5, GRIP1_7, Q9Y3R0
T5 sequence (Q9Y3R0 999-1096, limits assumed, looked up): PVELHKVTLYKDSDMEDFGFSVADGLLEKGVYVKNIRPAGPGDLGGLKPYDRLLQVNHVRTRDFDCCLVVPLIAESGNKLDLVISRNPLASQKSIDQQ

GRIP2_3, Q9C0E4 = target: GRIP2_3, Q9C0E4
GRIP2_3, Q9C0E4, sequence (Q9C0E4 238-339): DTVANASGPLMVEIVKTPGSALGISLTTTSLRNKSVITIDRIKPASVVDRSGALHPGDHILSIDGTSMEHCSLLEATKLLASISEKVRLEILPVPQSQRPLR

HTRA2, O43464 = target: HTRA2, O43464
HTRA2, O43464, sequence (O43464 355-458): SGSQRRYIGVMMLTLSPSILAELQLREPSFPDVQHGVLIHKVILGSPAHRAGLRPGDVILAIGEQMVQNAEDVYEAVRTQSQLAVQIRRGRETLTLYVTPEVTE

HTRA4, P83105 = target: T6, HTRA4, P83105
T6 sequence (P83105 378-476, limits assumed, looked up): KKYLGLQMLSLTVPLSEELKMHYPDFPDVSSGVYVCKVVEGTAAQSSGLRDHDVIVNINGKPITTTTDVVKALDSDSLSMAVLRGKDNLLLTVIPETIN

Inadl_3, Q8NI35 = target: Inadl_3, Q8NI35
Inadl_3, Q8NI35, sequence (Q8NI35 359-469): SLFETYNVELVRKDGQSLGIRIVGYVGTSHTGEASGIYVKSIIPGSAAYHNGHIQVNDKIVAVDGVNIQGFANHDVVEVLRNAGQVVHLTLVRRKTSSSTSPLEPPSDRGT

LIMK2, P53671 = target: LIMK2, P53671
LIMK2, P53671, sequence (P53671 143-248): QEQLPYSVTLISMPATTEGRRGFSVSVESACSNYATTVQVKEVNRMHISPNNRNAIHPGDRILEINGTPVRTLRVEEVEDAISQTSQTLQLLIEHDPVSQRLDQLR

LNX2_2, Q8N448 = target: T7, LNX2_2, Q8N448
T7 sequence (Q8N448 334-432, limits assumed, looked up): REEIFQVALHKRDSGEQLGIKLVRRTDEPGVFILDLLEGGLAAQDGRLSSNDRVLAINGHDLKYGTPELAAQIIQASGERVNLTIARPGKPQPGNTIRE

MAST2, Q6P0Q8 = target: MAST2, Q6P0Q8
MAST2, Q6P0Q8, sequence (Q6P0Q8 1099-1202): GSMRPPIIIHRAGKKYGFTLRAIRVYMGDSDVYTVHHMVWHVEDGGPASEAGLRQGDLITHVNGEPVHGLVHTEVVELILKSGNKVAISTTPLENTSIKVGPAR

MPDZ_12, O75970 = target: T8, MPDZ_12, O75970
T8 sequence (O75970 1857-1958, limits assumed, looked up): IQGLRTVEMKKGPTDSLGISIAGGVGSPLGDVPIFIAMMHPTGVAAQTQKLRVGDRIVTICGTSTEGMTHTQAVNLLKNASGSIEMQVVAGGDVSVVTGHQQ

MPP2, Q14168 = target: T9, MPP2, Q14168
T9 sequence (Q14168 180-250, limits assumed, looked up): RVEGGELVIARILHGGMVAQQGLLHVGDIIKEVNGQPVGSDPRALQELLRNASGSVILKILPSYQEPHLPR

MPP7, Q5T2T1 = target: T10, MPP7, Q5T2T1
T10 sequence (Q5T2T1 134-230, limits assumed, looked up): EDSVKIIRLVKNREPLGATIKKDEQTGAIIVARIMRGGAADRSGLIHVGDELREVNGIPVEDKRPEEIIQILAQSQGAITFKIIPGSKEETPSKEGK

NHERF3_3, Q5T2W1 = target: T11, NHERF3_3, Q5T2W1
T11 sequence (Q5T2W1 238-333, limits assumed, looked up): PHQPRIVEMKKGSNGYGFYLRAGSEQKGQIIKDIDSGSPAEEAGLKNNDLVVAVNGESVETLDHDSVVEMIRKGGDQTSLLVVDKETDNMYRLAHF

PDZD7_3, Q9H5P4 = target: T12, PDZD7_3, Q9H5P4
T12 sequence (Q9H5P4 857-944, limits assumed, looked up): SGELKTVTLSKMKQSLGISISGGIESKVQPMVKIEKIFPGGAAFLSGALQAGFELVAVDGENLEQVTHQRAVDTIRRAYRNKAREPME

SCRIB_1, Q14160 = target: SCRIB_1, Q14160
SCRIB_1, Q14160, sequence (Q14160 718-814): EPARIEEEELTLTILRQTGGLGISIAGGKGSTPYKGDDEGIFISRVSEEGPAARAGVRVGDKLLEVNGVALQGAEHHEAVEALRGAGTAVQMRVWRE

SNTG1, Q9NSN8 = target: T13, SNTG1, Q9NSN8
T13 sequence (Q9NSN8 52-150, limits assumed, looked up): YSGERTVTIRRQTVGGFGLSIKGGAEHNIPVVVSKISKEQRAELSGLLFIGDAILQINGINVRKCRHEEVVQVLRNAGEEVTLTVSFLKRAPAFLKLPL

TIAM2, Q8IVF5 = target: T14, TIAM2, Q8IVF5
T14 sequence (Q8IVF5 885-986, limits assumed, looked up): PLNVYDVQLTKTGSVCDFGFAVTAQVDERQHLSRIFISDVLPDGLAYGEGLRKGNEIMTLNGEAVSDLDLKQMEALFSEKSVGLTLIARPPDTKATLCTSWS

TJP1_2, Q07157 = target: TJP1_2, Q07157
TJP1_2, Q07157, sequence (Q07157 181-274): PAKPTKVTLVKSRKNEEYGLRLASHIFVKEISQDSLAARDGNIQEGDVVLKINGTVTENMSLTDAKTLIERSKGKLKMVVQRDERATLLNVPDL

GOPC, Q9HD26 = target: GOPC, Q9HD26
[1] = modified: phospho on T at position -2 from the C-terminal residue
[2] = plain residues with an end cap or a label only (N-terminal biotin on a linker: ado-ado)
[3] = plain residues with an end cap or a label only (N-terminal biotin on a linker: (peg)3)

## RLQRRRETQV [HPV18-E6_-2P, P06463]
APBA1_2, Q02410; [1]
  pKd: below the threshold
APBA2_1, Q99767; [1]
  pKd: below the threshold
ARHGEF11, O15085; [1]
  pKd: below the threshold
ARHGEF12, Q9NZN5-2; [1]
  pKd: below the threshold
DLG5_1, Q8TDM6; [1]
  pKd: below the threshold
DVL3, Q92997; [1]
  pKd: below the threshold
GRIP1_7, Q9Y3R0; [1]
  pKd: below the threshold
GRIP2_3, Q9C0E4; [1]
  pKd: below the threshold
HTRA2, O43464; [1]
  pKd: below the threshold
HTRA4, P83105; [1]
  pKd: below the threshold
Inadl_3, Q8NI35; [1]
  pKd: below the threshold
LIMK2, P53671; [1]
  pKd: below the threshold
LNX2_2, Q8N448; [1]
  pKd: below the threshold
MAST2, Q6P0Q8; [1]
  pKd: below the threshold
MPDZ_12, O75970; [1]
  pKd: below the threshold
MPP2, Q14168; [1]
  pKd: below the threshold
MPP7, Q5T2T1; [1]
  pKd: below the threshold
NHERF3_3, Q5T2W1; [1]
  pKd: below the threshold
PDZD7_3, Q9H5P4; [1]
  pKd: below the threshold
SCRIB_1, Q14160; [1]
  pKd: below the threshold
SNTG1, Q9NSN8; [1]
  pKd: below the threshold
TIAM2, Q8IVF5; [1]
  pKd: below the threshold
TJP1_2, Q07157; [1]
  pKd: below the threshold

## LPAHHNATRL [SLC34A1, Q06495;Q06495-1]
APBA1_2, Q02410; [2]
  pKd: 4
APBA2_1, Q99767; [2]
  pKd: below the threshold
ARHGEF11, O15085; [2]
  pKd: 4.11
ARHGEF12, Q9NZN5-2; [2]
  pKd: 4.44
DLG5_1, Q8TDM6; [2]
  pKd: below the threshold
DVL3, Q92997; [2]
  pKd: below the threshold
GOPC, Q9HD26; [2]
  pKd: 4.53
GRIP1_7, Q9Y3R0; [2]
  pKd: below the threshold
GRIP2_3, Q9C0E4; [2]
  pKd: below the threshold
HTRA2, O43464; [2]
  pKd: below the threshold
HTRA4, P83105; [2]
  pKd: 3.96
Inadl_3, Q8NI35; [2]
  pKd: below the threshold
LIMK2, P53671; [2]
  pKd: below the threshold
LNX2_2, Q8N448; [2]
  pKd: below the threshold
MAST2, Q6P0Q8; [2]
  pKd: 5.47
MPDZ_12, O75970; [2]
  pKd: below the threshold
MPP2, Q14168; [2]
  pKd: below the threshold
MPP7, Q5T2T1; [2]
  pKd: below the threshold
NHERF3_3, Q5T2W1; [2]
  pKd: 4.47
PDZD7_3, Q9H5P4; [2]
  pKd: 4.43
SNTG1, Q9NSN8; [2]
  pKd: below the threshold
TIAM2, Q8IVF5; [2]
  pKd: below the threshold
TJP1_2, Q07157; [2]
  pKd: below the threshold

## NLNSSEGVPDLLV [SARS-CoV-E, P59637]
APBA1_2, Q02410; [3]
  pKd: below the threshold
APBA2_1, Q99767; [3]
  pKd: below the threshold
ARHGEF11, O15085; [3]
  pKd: below the threshold
ARHGEF12, Q9NZN5-2; [3]
  pKd: below the threshold
DLG5_1, Q8TDM6; [3]
  pKd: below the threshold
DVL3, Q92997; [3]
  pKd: below the threshold
GOPC, Q9HD26; [3]
  pKd: below the threshold
GRIP1_7, Q9Y3R0; [3]
  pKd: 4.04
GRIP2_3, Q9C0E4; [3]
  pKd: below the threshold
HTRA2, O43464; [3]
  pKd: below the threshold
HTRA4, P83105; [3]
  pKd: below the threshold
Inadl_3, Q8NI35; [3]
  pKd: below the threshold
LIMK2, P53671; [3]
  pKd: below the threshold
LNX2_2, Q8N448; [3]
  pKd: 4.24
MAST2, Q6P0Q8; [3]
  pKd: below the threshold
MPDZ_12, O75970; [3]
  pKd: below the threshold
MPP2, Q14168; [3]
  pKd: below the threshold
MPP7, Q5T2T1; [3]
  pKd: below the threshold
NHERF3_3, Q5T2W1; [3]
  pKd: below the threshold
PDZD7_3, Q9H5P4; [3]
  pKd: below the threshold
SCRIB_1, Q14160; [3]
  pKd: below the threshold
SNTG1, Q9NSN8; [3]
  pKd: below the threshold
TIAM2, Q8IVF5; [3]
  pKd: below the threshold
TJP1_2, Q07157; [3]
  pKd: 5.18
